Literature values in PMC10674744.

Key:
[1] = molecular target: Rev NES NES (Human immunodeficiency virus 1) (UniProt P04325)
[2] = molecular target: SNUPN NES NES (Homo sapiens) (UniProt O95149)
[3] = molecular target: PKI NES NES (Homo sapiens) (UniProt P61925)
[4] = molecular target: STRAD NES NES (Homo sapiens) (UniProt Q7RTN6)

CRM1 (from UniProt O14980)
Kd [1]: 1.18 µM
Kd [2]: 12.5 µM
Kd [3]: 0.034 µM
Kd [4]: 10.3 µM
